In patent US20230414780A1 (VECT HORUS, published 2023):

How the values were obtained:
[1] = target: T1, human transferrin receptor (hTfR) fused to EGFP, on CHO cells (human, UniProt P02786 1-760); test: flow cytometry on CHO-hTfR-EGFP cells, 1 hr at 4 C, anti-6His + Alexa647 anti-mouse; nonlinear fit
T1 construct: whole, on cells; also called human TfR; CHO-hTfR-EGFP; not shown: EGFP from pEGFP-C1 vector, fused to the N-terminal (intracellular) end of hTfR
Protocol: CHO-hTfR-EGFP cells were incubated 1 hr at 4° C. with various concentrations of the indicated compounds. Detection of VHHs was performed using a primary mouse anti-6His (1/1000) and an Alexa647-conjugated anti-mouse secondary antibody (1/400). Measurements of cell-surface signal associated with VHH were performed using flow cytometry. The results are expressed as the ratio of Alexa647-associated fluorescence intensity of test compounds to that of background fluorescence.

[2] = target: T1, human transferrin receptor (hTfR) fused …; test: flow cytometry on CHO-hTfR-EGFP cells, 1 hr at 4 C, anti-6His + Alexa647 anti-mouse; ratio to background fluorescence
[3] = target: T2, murine TfR expressed by murine neuroblastoma Neuro-2a cells (mouse, UniProt Q62351 1-763); test: competition with the fluorescent reference VHH on Neuro-2a cells as in FIG. 25; Ki/app on mTfR, free VHH
T2 construct: whole, on cells; also called mTfR (N2a cells)
Protocol: (§1) The binding of VHH-Oligo and VHH-hFc-Oligo conjugates to mTfR was evaluated using a competition assay on living cells expressing the receptor of interest, namely murine neuroblastoma Neuro-2a cells (N2a). N2a cells were grown in Dulbecco's Modified Eagle Medium (DMEM) GlutaMAX supplemented with 10% v/v FBS in 5% CO₂ at 37° C. Cells were seeded two days before experiments in 96-well plates at a density of 50.000 cells/well. […] Resuspended cells were transferred in a 96-deepwell plate (V-bottom) containing 1% fetal bovine serum (FBS)/0.02% sodium azide in phosphate-buffered saline (PBS) and then centrifuged for 5 min at 2000 rpm at 4° C. After removing the supernatant, 5 mM EDTA in D-PBS and 4% paraformaldehyde (PFA) (v/v 1:1) were added into wells to fix cells for 15 min at room temperature. PFA was removed by centrifugation (5 min, 3000 rpm, 4° C.) and cells were resuspended with 5 mM EDTA in D-PBS. Then the cellular A680-associated fluorescence signal was quantified using an Attune™ NxT flow cytometer (Thermo Fisher Scientific) equipped with Attune™ NxT v3.1.2. Experimental data (experimental triplicates) were fitted with GraphPad Prism® software using a nonlinear fit to determine the apparent Ki inhibition constants.

[4] = target: T2, murine TfR expressed by murine …; test: competition with C5-Alexa680 (100 nM) on living Neuro-2a cells, 3 hrs at 37 C, flow cytometry; Ki/app, mean ± SD
Protocol: as §1

[5] = target: T3, mouse TfR ectodomain fused to a mouse IgG1 Fc fragment (mouse, UniProt Q62351 89-763); test: SPR, at equilibrium
T3 construct: extracellular domain; not shown: mouse IgG1 Fc fragment
How it was run: (§2)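 TfR–mouse Fc fusions, produced in-house, captured on HC 1500M or CM5 chips either directly or via immobilized anti-mouse IgG. VHHs injected in single-cycle or multiple-cycle kinetic mode on Biacore T200.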

[6] = target: T4, rhesus monkey TfR ectodomain fused to a mouse IgG1 Fc fragment (rhesus monkey, UniProt I0FKY7 89-760); test: SPR, at equilibrium
T4 construct: extracellular domain; not shown: mouse IgG1 Fc fragment
How it was run: as §2

[7] = target: T5, human TfR ectodomain fused to a mouse IgG1 Fc fragment (human, UniProt P02786 89-760); test: SPR, kinetic
T5 construct: extracellular domain; ectodomain fused to the N-terminal end of the Fc, made in-house; not shown: mouse IgG1 Fc fragment
How it was run: as §2

[8] = target: T3, mouse TfR ectodomain fused to a mouse …; test: SPR, kinetic
How it was run: as §2

[9] = target: T4, rhesus monkey TfR ectodomain fused to a …; test: SPR, kinetic
How it was run: as §2

T3 sequence (Q62351 89-763): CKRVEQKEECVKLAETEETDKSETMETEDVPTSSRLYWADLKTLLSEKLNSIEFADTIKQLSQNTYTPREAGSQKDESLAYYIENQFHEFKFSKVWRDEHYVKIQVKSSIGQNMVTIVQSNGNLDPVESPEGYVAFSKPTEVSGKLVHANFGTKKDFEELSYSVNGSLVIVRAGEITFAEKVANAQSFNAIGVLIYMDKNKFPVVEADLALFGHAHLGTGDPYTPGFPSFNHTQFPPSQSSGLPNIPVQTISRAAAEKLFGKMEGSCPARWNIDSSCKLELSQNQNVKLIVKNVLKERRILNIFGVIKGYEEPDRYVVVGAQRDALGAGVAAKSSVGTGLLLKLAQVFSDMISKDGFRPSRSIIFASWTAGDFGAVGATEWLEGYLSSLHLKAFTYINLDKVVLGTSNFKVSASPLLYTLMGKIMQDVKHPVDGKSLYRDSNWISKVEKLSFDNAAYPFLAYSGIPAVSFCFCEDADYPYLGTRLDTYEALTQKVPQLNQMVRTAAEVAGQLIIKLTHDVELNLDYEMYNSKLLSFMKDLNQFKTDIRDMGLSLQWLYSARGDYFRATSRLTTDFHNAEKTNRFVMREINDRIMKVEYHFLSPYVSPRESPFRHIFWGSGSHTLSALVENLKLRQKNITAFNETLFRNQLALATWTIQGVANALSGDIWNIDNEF
T5 sequence (P02786 89-760): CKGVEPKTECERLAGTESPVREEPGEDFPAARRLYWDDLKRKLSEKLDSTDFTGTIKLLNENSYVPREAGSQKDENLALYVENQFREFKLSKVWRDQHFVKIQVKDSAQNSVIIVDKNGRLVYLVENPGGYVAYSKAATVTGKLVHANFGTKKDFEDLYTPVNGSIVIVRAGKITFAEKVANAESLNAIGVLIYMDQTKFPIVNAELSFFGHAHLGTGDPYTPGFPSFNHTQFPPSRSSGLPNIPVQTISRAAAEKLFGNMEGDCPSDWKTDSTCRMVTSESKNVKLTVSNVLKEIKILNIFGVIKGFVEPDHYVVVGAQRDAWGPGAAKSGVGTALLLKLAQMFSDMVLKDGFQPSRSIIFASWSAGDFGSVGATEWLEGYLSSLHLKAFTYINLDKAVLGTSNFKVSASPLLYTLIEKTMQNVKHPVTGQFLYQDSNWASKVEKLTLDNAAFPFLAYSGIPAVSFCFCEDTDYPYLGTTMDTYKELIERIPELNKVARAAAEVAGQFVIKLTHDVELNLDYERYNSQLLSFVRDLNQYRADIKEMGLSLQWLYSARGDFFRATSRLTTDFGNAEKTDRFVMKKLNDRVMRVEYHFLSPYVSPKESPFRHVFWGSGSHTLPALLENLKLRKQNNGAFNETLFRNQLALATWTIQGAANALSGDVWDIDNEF
T2 sequence (Q62351 whole entry): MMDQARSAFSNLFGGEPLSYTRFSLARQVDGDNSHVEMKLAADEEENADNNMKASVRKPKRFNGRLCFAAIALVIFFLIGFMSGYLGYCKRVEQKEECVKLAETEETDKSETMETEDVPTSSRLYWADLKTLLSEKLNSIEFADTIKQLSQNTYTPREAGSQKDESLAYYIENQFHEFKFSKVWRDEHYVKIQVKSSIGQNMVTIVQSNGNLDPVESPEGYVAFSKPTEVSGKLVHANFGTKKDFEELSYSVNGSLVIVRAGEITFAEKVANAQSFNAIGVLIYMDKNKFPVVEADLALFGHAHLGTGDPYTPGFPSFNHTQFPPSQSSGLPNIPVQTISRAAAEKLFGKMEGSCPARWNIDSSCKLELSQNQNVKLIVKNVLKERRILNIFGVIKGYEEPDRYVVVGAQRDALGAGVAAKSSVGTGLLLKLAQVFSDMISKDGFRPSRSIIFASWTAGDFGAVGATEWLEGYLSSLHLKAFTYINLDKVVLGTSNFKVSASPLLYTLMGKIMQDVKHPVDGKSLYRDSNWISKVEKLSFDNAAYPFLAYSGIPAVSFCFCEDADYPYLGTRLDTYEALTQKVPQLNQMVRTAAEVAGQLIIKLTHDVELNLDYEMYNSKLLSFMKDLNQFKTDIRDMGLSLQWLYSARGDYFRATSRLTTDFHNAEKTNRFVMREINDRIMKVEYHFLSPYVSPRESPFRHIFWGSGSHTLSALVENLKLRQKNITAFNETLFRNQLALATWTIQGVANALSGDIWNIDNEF
T1 sequence (P02786 whole entry, the tested form may be a part): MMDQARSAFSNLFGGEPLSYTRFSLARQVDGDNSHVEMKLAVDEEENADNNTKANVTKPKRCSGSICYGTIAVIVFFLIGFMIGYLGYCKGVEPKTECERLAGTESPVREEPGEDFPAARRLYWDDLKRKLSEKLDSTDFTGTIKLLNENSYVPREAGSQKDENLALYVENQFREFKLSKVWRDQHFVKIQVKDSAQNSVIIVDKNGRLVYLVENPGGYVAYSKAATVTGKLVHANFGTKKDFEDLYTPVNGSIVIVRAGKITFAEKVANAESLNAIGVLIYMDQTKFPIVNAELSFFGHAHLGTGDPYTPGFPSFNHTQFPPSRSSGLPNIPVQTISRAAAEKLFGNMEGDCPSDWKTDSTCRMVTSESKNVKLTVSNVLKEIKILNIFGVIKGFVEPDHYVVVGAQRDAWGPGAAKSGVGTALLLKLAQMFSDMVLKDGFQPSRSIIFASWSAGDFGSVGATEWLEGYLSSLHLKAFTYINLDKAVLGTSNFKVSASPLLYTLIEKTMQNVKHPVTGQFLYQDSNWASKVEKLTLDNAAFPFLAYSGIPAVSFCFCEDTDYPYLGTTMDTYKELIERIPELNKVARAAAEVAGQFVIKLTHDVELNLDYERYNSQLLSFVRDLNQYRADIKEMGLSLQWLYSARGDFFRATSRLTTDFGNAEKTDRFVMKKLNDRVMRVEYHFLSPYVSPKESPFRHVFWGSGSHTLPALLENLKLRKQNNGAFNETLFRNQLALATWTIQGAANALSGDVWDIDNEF

B1: VHH A (C5) (VHH)
VHH: EVQLVESGGGVVQPGGSLKLSCVASGTDFSINFIRWYRQAPGKQREFVAGFTATGNTNYADSMKGRFTISRDNTKNAVYLQIDSLKPEDTAVYYCYMLDKWGQGTQVTVSS
notes: form with the C-terminal myc-His6 tag (x = 1), since the VHHs were detected with anti-6His or anti-cMyc; the same holds for m12 to m126
- Kd [1]: 5.15 nM
- EC50 (read off the curve) [2]: ~5 nM
- Ki [3]: 319 nM
- Ki [4]: 319 nM
- Kd [5]: 88.2 nM
- Kd [6]: 13.1 nM
- Kd [7]: 0.206 nM
- koff [7]: 0.000179 s⁻¹
- kon [7]: 665000 M⁻¹ s⁻¹
- Kd [8]: 88.5 nM
- koff [8]: 0.0447 s⁻¹
- kon [8]: 915000 M⁻¹ s⁻¹
- Kd [9]: 5.35 nM
- koff [9]: 0.00774 s⁻¹
- kon [9]: 1.55e+06 M⁻¹ s⁻¹
